The values that follow come from PMC10066393, “Structural insights into the mechanism of leptin receptor activation” (Nature Communications, 2023).

Assay [1] has as its target Myc-tagged full-length human LepR, wild type (human) (UniProt P48357).
Assay [2] addresses mouse LepR^D1-D7-zip (Mus musculus | not stated) (UniProt P48356).
The target in assay [3] is Myc-tagged full-length human LepR, wild type (human) (UniProt P48357). The source holds these as a separate data set.
For assay [4], the target named is T1, mouse leptin (Mus musculus, UniProt P41160 22-167).
T1 construct: leptin, Mus musculus, produced in E. coli; Two leptin molecules stand in the 2:2 complex with the zippered LepR dimer; also called M. musculus leptin; source: Escherichia coli produced
T1 sequence (P41160 22-167): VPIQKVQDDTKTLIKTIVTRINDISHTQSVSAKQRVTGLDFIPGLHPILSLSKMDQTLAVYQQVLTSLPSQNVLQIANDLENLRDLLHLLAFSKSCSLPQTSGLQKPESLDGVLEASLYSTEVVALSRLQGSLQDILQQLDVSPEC
Nature of the assay: SEC; mouse leptin incubated with purified LepR-zip overnight at 4 °C at a leptin:LepR ratio of 4:1; Superdex 200 in PBS pH 7.2; co-elution. The conditions noted are these: both partners purified. (In gel filtration, larger molecules generally elute earlier.)

In assay [5] the target is T1, mouse leptin. The experiment in a line: cryo-EM structure; SEC-purified leptin–LepR-zip complex cross-linked with 1 mM BS3, 1–2 mg/ml in PBS, 0.01% fluorinated octyl maltoside; single particle cryo-EM, AlphaFold models docked and refined. To be noted: both partners purified.

Myc-tagged full-length human LepR, wild type (human), sequence (P48357 22-1165): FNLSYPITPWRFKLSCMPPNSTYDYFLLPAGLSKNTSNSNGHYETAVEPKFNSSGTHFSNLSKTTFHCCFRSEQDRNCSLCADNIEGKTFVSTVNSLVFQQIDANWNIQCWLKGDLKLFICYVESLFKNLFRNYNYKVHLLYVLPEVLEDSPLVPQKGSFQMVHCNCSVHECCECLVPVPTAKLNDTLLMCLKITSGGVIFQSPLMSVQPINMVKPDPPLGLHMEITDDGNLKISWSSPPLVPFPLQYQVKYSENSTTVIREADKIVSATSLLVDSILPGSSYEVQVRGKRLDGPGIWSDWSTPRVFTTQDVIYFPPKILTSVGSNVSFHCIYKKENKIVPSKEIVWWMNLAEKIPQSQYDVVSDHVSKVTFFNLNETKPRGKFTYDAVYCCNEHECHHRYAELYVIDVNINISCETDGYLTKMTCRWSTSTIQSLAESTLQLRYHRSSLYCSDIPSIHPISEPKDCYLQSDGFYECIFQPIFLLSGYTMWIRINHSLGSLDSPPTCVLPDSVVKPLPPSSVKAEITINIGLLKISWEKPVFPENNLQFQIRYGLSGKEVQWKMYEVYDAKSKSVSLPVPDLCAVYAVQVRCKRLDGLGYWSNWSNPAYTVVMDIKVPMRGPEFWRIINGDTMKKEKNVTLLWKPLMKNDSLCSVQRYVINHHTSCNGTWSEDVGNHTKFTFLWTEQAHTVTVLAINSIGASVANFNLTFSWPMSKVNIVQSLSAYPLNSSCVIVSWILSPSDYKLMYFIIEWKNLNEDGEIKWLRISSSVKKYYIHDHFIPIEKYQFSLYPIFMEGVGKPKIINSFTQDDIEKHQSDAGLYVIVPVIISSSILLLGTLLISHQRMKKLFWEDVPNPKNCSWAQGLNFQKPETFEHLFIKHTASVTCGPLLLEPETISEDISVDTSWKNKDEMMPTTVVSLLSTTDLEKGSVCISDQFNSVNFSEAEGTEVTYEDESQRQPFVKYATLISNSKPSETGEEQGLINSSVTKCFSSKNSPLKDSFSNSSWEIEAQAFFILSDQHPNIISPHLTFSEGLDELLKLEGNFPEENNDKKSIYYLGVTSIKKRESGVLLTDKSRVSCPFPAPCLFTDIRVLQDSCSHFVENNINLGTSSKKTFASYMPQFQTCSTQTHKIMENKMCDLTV

In assay [1], human leptin K33A/Q34A/K35A (ligand) showed a maximal phospho-STAT3 response, dose-response by phospho-flow cytometry, LepR-expressing HEK 293T cells, percent of WT leptin (% of WT leptin) of 75.
In the case of “leptin S117A used on cells expressing mouse LepR (from UniProt P41160 22-167) (ligand)”, in assay [2], the activation of ERK in cells expressing mouse LepR (the whole receptor on cells, not the zip construct) turned out to be 5%; the activation of SHP2 in cells expressing mouse LepR (the whole receptor on cells, not the zip construct) came to 20%; the activation of STAT3 in cells expressing mouse LepR (the whole receptor on cells, not the zip construct) amounted to 60%.
As to human leptin D23L/S117N (ligand), in assay [3], the phospho-STAT3 left, immunoblots, HEK-293T cells stably expressing hLepR, 10 nM WT leptin plus the variant, relative to WT leptin alone (% of WT leptin alone) worked out at 50; the reduction of phospho-SHP2 and phospho-ERK, immunoblots, HEK-293T cells stably expressing hLepR, 10 nM WT leptin plus the variant, 20 min was 90 % reduction.
In assay [1], human leptin S117N (ligand) showed a maximal phospho-STAT3 response, dose-response by phospho-flow cytometry, LepR-expressing HEK 293T cells, percent of WT leptin (% of WT leptin) of 45.

B1: mouse LepR^D1-D7-zip (receptor)
chain: NLAYPISPWKFKLFCGPPNTTDDSFLSPAGAPNNASALKGASEAIVEAKFNSSGIYVPELSKTVFHCCFGNEQGQNCSALTDNTEGKTLASVVKASVFRQLGVNWDIECWMKGDLTLFICHMEPLPKNPFKNYDSKVHLLYDLPEVIDDSPLPPLKDSFQTVQCNCSLRGCECHVPVPRAKLNYALLMYLEITSAGVSFQSPLMSLQPMLVVKPDPPLGLHMEVTDDGNLKISWDSQTMAPFPLQYQVKYLENSTIVREAAEIVSATSLLVDSVLPGSSYEVQVRSKRLDGSGVWSDWSSPQVFTTQDVVYFPPKILTSVGSNASFHCIYKNENQIISSKQIVWWRNLAEKIPEIQYSIVSDRVSKVTFSNLKATRPRGKFTYDAVYCCNEQACHHRYAELYVIDVNINISCETDGYLTKMTCRWSPSTIQSLVGSTVQLRYHRRSLYCPDSPSIHPTSEPKNCVLQRDGFYECVFQPIFLLSGYTMWIRINHSLGSLDSPPTCVLPDSVVKPLPPSNVKAEITVNTGLLKVSWEKPVFPENNLQFQIRYGLSGKEIQWKTHEVFDAKSKSASLLVSDLCAVYVVQVRCRRLDGLGYWSNWSSPAYTLVMDVKVPMRGPEFWRKMDGDVTKKERNVTLLWKPLTKNDSLCSVRRYVVKHRTAHNGTWSEDVGNRTNLTFLWTEPAHTVTVLAVNSLGASLVNFNLTFSWPMSKVSAVESLSAYPLSSSCVILSWTLSPDDYSLLYLVIEWKILNEDDGMKWLRIPSNVKKFYIHDNFIPIEKYQFSLYPVFMEGVGKPKIINGFTKDAIDKQQNDAGEELLSKNYHLENEVARLKK
notes: leptin receptor (LepR), Mus musculus, complete extracellular domain D1-D7, residues 23-839; GCN4 leucine zipper, C-terminal, stands in place of the transmembrane domain; Secreted with an N-terminal HA signal peptide from the vector pD649; Dimerised by the leucine zipper; source: Expi293F, transiently transfected, purified from supernatant (Ni-NTA, SEC)
With B1, the binding result in assay [4] is listed as “binds”.

B2: mouse LepR^D3-D7-zip (receptor)
chain: DVVYFPPKILTSVGSNASFHCIYKNENQIISSKQIVWWRNLAEKIPEIQYSIVSDRVSKVTFSNLKATRPRGKFTYDAVYCCNEQACHHRYAELYVIDVNINISCETDGYLTKMTCRWSPSTIQSLVGSTVQLRYHRRSLYCPDSPSIHPTSEPKNCVLQRDGFYECVFQPIFLLSGYTMWIRINHSLGSLDSPPTCVLPDSVVKPLPPSNVKAEITVNTGLLKVSWEKPVFPENNLQFQIRYGLSGKEIQWKTHEVFDAKSKSASLLVSDLCAVYVVQVRCRRLDGLGYWSNWSSPAYTLVMDVKVPMRGPEFWRKMDGDVTKKERNVTLLWKPLTKNDSLCSVRRYVVKHRTAHNGTWSEDVGNRTNLTFLWTEPAHTVTVLAVNSLGASLVNFNLTFSWPMSKVSAVESLSAYPLSSSCVILSWTLSPDDYSLLYLVIEWKILNEDDGMKWLRIPSNVKKFYIHDNFIPIEKYQFSLYPVFMEGVGKPKIINGFTKDAIDKQQNDAGEELLSKNYHLENEVARLKK
notes: leptin receptor (LepR), Mus musculus, domains D3-D7, residues 330-839; GCN4 leucine zipper, C-terminal, stands in place of the transmembrane domain; Secreted with an N-terminal HA signal peptide from the vector pD649; Dimerised by the leucine zipper; source: Expi293F, transiently transfected, purified from supernatant (Ni-NTA, SEC)
As to B2, the binding result in assay [5] is recorded as “binds”.
